Tests used:
[1] = target: Jak2 (UniProt O60674); assay: phosphorylation enrichment, bacterial display (enrichment ratio); higher = better substrate or ligand; peptides without Tyr show the background
[2] = target: Hck (UniProt P08631); assay: as above
[3] = target: FGFR3 (UniProt P22607); assay: as above
[4] = target: Fes (UniProt P07332); assay: as above
[5] = system: c-Abl (mouse); assay: as above
[6] = target: EPHB2 (UniProt P29323); assay: as above
[7] = system: Fer (mouse); assay: as above
[8] = system: AncSZ; assay: as above
[9] = target: EPHB1 (UniProt P54762); assay: as above
[10] = target: FGFR1 (UniProt P11362); assay: as above
[11] = system: c-Src; assay: as above
[12] = target: Fyn (UniProt P06241); assay: as above
[13] = target: MERTK (UniProt Q12866); assay: as above
[14] = target: c-Src SH2; assay: SH2 binding enrichment of the phosphorylated peptide, bacterial display (enrichment ratio); higher = better substrate or ligand; peptides without Tyr show the background
[15] = target: Grb2 SH2 (UniProt P62993); assay: as above
[16] = target: SHP2-C SH2; assay: as above
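Throughout, for SH2 binding enrichment of the phosphorylated peptide, bacterial display: peptide library displayed on the E. coli surface as eCPX fusions, selected cells deep-sequenced, score is each peptide's frequency after selection divided by its frequency in the input.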
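Throughout, for phosphorylation enrichment, bacterial display: 11-residue human phosphosite peptides and single-mutation variants displayed on the E. coli surface, counted by deep sequencing, each peptide's frequency after selection divided by its frequency in the unselected input library; frequency after pTyr selection over input frequency; kinase dosed for 20-30% of maximal phosphorylation in three min.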

Chain of EPHB1 (P54762 whole entry, looked up): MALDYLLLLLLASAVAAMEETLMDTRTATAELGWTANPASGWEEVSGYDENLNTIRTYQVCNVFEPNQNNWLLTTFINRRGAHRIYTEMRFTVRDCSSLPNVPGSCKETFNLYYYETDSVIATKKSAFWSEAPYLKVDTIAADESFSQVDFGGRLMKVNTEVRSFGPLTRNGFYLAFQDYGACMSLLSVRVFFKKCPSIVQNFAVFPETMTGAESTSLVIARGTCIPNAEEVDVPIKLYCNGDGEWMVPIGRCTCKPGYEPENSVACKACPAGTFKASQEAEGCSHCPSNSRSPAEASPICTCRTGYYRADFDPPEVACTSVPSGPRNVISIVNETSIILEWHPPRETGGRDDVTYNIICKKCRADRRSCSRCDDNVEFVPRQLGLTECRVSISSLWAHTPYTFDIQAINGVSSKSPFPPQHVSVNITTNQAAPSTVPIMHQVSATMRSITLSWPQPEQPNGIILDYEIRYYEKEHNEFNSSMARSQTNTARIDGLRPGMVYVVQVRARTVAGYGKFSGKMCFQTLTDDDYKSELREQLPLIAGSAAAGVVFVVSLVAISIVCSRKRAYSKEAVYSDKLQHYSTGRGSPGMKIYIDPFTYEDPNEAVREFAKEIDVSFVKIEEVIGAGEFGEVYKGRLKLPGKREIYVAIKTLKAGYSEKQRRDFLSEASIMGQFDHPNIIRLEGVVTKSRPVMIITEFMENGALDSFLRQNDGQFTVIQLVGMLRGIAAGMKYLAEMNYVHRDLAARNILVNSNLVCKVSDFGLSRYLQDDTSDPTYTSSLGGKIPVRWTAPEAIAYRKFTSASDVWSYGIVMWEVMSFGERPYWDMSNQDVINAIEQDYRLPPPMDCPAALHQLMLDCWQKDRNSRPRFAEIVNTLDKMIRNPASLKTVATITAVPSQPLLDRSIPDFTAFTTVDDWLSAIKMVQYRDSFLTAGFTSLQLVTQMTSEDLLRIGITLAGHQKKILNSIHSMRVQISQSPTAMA
Chain of Hck (P08631 whole entry, looked up): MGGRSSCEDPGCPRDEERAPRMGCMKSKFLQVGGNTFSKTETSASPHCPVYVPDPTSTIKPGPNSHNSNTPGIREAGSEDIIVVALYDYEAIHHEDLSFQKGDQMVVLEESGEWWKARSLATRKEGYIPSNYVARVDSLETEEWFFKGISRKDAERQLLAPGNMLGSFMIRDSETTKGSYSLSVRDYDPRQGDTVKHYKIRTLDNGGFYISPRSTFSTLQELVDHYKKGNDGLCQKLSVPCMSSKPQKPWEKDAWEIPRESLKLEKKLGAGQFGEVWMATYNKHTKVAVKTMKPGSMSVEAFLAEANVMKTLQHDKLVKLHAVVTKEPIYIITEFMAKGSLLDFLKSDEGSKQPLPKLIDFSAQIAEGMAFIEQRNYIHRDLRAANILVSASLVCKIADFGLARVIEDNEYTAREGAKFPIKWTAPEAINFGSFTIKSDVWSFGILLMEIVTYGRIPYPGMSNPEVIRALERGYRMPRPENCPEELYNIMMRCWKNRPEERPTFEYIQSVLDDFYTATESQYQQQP
Chain of MERTK (Q12866 whole entry, looked up): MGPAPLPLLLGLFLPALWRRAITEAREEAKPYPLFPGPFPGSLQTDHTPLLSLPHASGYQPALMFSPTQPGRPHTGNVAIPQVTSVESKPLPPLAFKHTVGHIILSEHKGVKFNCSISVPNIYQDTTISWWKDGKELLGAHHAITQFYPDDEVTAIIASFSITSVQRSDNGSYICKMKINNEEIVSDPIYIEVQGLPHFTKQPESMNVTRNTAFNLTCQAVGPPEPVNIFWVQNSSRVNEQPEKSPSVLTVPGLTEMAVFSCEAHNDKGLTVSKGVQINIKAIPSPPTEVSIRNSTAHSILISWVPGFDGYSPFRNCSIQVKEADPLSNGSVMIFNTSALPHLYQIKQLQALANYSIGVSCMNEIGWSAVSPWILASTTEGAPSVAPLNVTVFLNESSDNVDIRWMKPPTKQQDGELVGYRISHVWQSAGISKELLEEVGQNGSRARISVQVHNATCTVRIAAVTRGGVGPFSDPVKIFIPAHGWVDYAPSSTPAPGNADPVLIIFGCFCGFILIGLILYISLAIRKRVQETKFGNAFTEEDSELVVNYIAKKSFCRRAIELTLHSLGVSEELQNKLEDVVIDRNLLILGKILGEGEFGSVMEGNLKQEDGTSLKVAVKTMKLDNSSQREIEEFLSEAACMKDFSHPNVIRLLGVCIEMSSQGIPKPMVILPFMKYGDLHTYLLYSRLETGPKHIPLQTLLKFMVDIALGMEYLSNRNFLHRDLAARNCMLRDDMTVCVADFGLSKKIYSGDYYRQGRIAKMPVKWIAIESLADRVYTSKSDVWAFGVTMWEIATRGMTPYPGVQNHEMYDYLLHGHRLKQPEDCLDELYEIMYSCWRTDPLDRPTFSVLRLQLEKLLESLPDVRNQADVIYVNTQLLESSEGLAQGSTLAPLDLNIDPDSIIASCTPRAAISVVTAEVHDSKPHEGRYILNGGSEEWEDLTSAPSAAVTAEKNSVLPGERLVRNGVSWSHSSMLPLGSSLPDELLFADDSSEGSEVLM
Chain of FGFR3 (P22607 whole entry, looked up): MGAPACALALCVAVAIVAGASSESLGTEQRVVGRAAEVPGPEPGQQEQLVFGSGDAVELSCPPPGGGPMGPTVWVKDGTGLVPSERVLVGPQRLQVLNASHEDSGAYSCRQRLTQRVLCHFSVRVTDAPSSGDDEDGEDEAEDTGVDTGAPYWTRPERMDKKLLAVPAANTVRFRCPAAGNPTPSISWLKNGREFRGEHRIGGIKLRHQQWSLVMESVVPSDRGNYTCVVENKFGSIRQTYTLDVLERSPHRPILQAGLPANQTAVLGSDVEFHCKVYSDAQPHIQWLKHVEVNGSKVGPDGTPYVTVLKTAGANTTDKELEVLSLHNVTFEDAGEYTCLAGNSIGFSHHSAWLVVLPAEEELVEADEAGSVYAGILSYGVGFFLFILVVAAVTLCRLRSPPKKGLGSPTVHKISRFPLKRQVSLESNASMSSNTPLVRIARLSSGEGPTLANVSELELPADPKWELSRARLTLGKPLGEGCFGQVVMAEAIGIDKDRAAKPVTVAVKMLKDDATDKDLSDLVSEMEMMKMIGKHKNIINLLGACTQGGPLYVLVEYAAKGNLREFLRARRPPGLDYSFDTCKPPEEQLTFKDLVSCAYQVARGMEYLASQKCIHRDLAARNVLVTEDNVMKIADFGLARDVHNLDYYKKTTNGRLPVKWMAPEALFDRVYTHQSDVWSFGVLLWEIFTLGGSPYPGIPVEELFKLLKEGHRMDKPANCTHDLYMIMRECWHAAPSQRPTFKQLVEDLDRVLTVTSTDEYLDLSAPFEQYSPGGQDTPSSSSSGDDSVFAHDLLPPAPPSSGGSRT
Chain of Fyn (P06241 whole entry, looked up): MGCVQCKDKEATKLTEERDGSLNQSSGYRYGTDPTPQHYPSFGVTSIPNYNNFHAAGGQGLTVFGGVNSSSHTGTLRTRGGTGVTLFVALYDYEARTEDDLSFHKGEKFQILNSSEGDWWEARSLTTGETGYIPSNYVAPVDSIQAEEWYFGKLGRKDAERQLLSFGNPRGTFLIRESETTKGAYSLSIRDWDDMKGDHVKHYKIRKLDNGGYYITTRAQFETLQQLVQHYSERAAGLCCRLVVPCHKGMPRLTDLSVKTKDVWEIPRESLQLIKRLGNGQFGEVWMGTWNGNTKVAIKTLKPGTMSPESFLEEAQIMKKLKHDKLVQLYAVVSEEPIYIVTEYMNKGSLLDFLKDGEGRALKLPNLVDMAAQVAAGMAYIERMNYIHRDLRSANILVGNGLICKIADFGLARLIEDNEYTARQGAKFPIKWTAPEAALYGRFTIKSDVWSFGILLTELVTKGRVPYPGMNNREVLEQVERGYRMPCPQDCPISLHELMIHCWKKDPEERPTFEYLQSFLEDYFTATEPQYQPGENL
Chain of Fes (P07332 whole entry, looked up): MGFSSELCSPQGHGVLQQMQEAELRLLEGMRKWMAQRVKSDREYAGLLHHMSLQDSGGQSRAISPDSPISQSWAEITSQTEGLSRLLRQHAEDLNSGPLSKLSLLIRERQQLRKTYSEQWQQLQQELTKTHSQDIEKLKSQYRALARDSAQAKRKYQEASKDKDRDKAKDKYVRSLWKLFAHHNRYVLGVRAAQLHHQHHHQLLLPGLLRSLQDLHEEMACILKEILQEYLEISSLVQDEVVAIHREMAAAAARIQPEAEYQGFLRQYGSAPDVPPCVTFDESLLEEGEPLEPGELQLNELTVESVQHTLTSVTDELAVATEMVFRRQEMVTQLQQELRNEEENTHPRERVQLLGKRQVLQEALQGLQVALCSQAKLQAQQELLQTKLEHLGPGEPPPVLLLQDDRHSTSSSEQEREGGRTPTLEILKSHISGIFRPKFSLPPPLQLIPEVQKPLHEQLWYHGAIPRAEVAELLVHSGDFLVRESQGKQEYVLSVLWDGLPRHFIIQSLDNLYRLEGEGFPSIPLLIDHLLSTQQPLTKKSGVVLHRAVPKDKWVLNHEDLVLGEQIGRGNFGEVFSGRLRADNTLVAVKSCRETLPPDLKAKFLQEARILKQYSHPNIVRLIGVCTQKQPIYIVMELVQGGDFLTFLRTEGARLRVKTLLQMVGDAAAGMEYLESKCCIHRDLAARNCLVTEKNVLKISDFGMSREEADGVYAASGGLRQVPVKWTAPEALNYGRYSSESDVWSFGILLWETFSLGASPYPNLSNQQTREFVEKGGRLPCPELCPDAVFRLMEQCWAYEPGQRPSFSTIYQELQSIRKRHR
Chain of Grb2 SH2 (P62993 whole entry, looked up): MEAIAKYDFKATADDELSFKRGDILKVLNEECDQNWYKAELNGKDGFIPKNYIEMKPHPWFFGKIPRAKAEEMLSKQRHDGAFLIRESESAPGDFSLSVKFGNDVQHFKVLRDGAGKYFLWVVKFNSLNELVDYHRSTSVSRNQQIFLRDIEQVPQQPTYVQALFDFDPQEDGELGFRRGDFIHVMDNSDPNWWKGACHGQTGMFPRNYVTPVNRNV

Sequence	phosphorylation enrichment [1]	phosphorylation enrichment [2]	phosphorylation enrichment [3]	phosphorylation enrichment [4]	phosphorylation enrichment [5]	phosphorylation enrichment [6]	phosphorylation enrichment [7]	phosphorylation enrichment [8]	phosphorylation enrichment [9]	phosphorylation enrichment [10]	phosphorylation enrichment [11]	phosphorylation enrichment [12]	phosphorylation enrichment [13]	SH2 binding enrichment [14]	SH2 binding enrichment [15]	SH2 binding enrichment [16]
FAFQLYDLDRD [CHP2_Y123_YF]	1.13	1.03	0.68	1.37	0.823	0.673	0.631	1.06	1.23	0.467	2.17	1.2	0.694	0.923	0.991	0.885
FDEFRYRSFIK [CFTR_Y517_V520F_YF]	0.497	0.511	0.526	0.764	0.454	0.39	0.556	0.775	0.417	0.498	0.419	0.467	0.422	0.414	0.702	0.41
FEKNVYVDKNL [PTCHD3_Y688]	0.732	0.505	0.461	0.894	0.616	0.406	0.437	0.615	0.36	0.419	0.446	0.405	0.411	0.542	0.962	0.543
FFLGAYDRFLP [SLC22A5_Y486_V481F_YF]	1.02	3.38	0.782	1.46	0.842	1.13	1.04	1.5	0.756	0.503	3.75	1.99	3.38	1.25	1.15	1.74
FGSVMYEFVGK [SLC18A1_Y251]	1.38	8.76	1.35	1.76	1.3	3.28	15.1	2.6	5.8	1.35	3.48	2.57	11.1	0.591	0.684	0.445
FHIDHYLGKEM [G6PD_Y202_R198H_YF]	0.467	0.503	0.481	0.688	0.415	0.553	0.342	0.556	0.438	0.53	0.334	0.39	0.331	0.778	1.33	0.787
FIGVTYKNKED [PDGFRA_Y993_E996K_YF]	0.797	0.427	0.743	0.922	0.567	0.582	0.417	0.776	0.422	0.458	0.426	0.495	0.386	0.566	1.08	0.996
FIPSNYVAEDR [FRK_Y104_YF]	0.564	0.411	0.502	0.657	0.431	0.443	0.427	0.74	0.386	0.412	0.42	0.394	0.399	0.579	0.82	0.868
FKELVYETVRV [FSHB_Y76]	0.894	12.4	1.57	6.92	18	9.8	18.5	2.11	10.2	3.22	8.98	11.2	9.94	0.77	0.751	0.961
FLAVGYHKPFI [IDS_Y225_H229Y_YF]	1.29	0.456	0.647	0.8	3.35	0.416	0.435	0.701	0.359	0.381	0.39	0.38	0.428	1.45	1.14	1.19
FLAVGYHKTHI [IDS_Y225_P228T]	0.971	0.469	0.649	0.946	0.638	0.484	0.447	0.784	0.548	0.429	0.4	0.477	0.441	1.03	1.23	1.37
FLGRDYLETLM [DUS3L_Y610_YF]	0.748	0.401	0.686	0.957	0.685	0.459	0.591	0.849	0.47	0.48	0.428	0.422	0.471	0.563	0.878	0.96
FLNSIYKSRDE [ROS1_Y2227]	0.612	0.519	0.507	0.642	0.499	0.517	0.342	0.566	0.365	0.439	0.481	0.444	0.357	0.612	1	0.954
FPCSVYVPDEW [INSR_Y1011]	1.11	0.675	0.769	1.3	1.08	0.606	0.72	1.5	0.707	0.623	1.8	0.714	0.476	1.13	0.858	1.35
FPDFVYKRIKA [DPYSL2_Y479]	0.793	0.443	0.543	0.773	0.362	0.468	0.424	0.682	0.421	0.495	0.344	0.494	0.377	0.41	0.79	0.622
FQQLFYLLQTN [IQGAP2_Y890_YF]	1.34	0.688	1.26	1.5	0.897	0.796	0.561	1.51	0.884	0.514	0.779	0.608	0.867	0.892	1.2	1.47
FQRITYHNWRH [PDE6B_Y556_R552Q_YF]	0.791	0.478	0.634	0.762	0.487	0.511	0.452	0.55	0.449	0.447	0.417	0.466	0.41	1.61	1.73	1.86
FRDMDYRSFPR [RBM10_Y41_YF]	0.58	0.477	0.482	0.864	0.485	0.492	0.346	0.694	0.435	0.473	0.4	0.424	0.446	0.543	1.01	0.726
FSCLPYRRLAY [SLC52A2_Y305_G306R]	0.837	0.663	0.758	0.671	1.22	0.547	0.5	0.95	0.613	0.656	0.766	0.691	0.621	0.448	0.942	0.653
FSGKAYADEEQ [CRIM1_Y826_R831Q]	1.31	0.565	0.81	1.14	1.2	0.675	0.529	1.12	0.581	0.459	0.41	0.522	0.552	0.528	0.992	0.8
FSIDHYLGKEM [G6PD_Y202_R198S_YF]	1.16	0.537	0.749	1.2	0.845	0.61	0.511	1.06	0.669	0.579	0.464	0.545	0.421	0.643	0.831	0.953
FSQNIYIQNRN [PKP2_Y631_YF]	0.517	0.589	0.473	0.62	0.459	0.425	0.418	0.619	0.396	0.54	0.45	0.447	0.383	0.864	0.964	0.843
FSSLGYPPPEG [ZSWIM4_Y87_YF]	0.807	0.472	0.704	0.906	0.593	0.481	0.396	0.752	0.418	0.437	0.421	0.443	0.401	0.535	0.957	0.829
FTFDPYSEEEP [IL2RB_Y387_D391E_YF]	0.917	0.584	0.811	1.49	0.733	0.576	0.549	1.22	0.874	0.602	0.907	0.59	0.469	0.654	1.04	0.971
FTGDIYSSSNL [LZTR1_Y141_N143S_YF]	0.588	5.66	0.588	0.652	2.35	1.03	2.31	0.748	0.782	0.494	4.35	5.8	1.7	0.476	0.793	0.567
FVHDNYVIWRT [CPS1_Y1450_R1453W]	1.11	1.26	1.8	1.16	1.14	7.37	1.26	1.28	6.57	2.79	0.721	0.577	1.45	0.827	1.11	0.847
FVPAAYVKKLD [SPTAN1_Y1020]	0.731	0.445	0.767	0.89	0.651	0.472	0.348	0.791	0.43	0.505	0.49	0.43	0.356	0.384	0.756	0.605
FVTSMYNEILM [TRPV1_Y310]	1.39	0.957	0.932	1.38	0.832	0.596	3.38	1.16	0.765	0.641	0.693	0.647	0.756	7.73	1	0.941
GADDSYFTVRS [ZAP70_Y492_A495V_YF]	1.73	0.968	2.62	1	0.665	0.498	0.484	1.59	0.558	3.54	0.846	0.604	0.468	0.645	0.854	0.625

From the supplement of paper PMC10065799, “High-throughput profiling of sequence recognition by tyrosine kinases and SH2 domains using bacterial peptide display” (eLife, 2023)
